Data from patent US20250304667A1 (ALLERGAN, published 2025).
Like-named read-outs stand apart in the source and are kept apart here.

How the values were obtained:
Test in all cases: cell-based or functional assay
[1] = biological target: T1, human complement Component 5 (C5) (human, UniProt P01031 19-1676, limits assumed)
[2] = biological target: T1, human complement Component 5 (C5); remark: listed apart in the source
[3] = biological target: T1, human complement Component 5 (C5); remark: listed apart in the source
[4] = biological target: T1, human complement Component 5 (C5); remark: listed apart in the source
[5] = biological target: T1, human complement Component 5 (C5); remark: listed apart in the source

T1 sequence (P01031 19-1676 limits assumed): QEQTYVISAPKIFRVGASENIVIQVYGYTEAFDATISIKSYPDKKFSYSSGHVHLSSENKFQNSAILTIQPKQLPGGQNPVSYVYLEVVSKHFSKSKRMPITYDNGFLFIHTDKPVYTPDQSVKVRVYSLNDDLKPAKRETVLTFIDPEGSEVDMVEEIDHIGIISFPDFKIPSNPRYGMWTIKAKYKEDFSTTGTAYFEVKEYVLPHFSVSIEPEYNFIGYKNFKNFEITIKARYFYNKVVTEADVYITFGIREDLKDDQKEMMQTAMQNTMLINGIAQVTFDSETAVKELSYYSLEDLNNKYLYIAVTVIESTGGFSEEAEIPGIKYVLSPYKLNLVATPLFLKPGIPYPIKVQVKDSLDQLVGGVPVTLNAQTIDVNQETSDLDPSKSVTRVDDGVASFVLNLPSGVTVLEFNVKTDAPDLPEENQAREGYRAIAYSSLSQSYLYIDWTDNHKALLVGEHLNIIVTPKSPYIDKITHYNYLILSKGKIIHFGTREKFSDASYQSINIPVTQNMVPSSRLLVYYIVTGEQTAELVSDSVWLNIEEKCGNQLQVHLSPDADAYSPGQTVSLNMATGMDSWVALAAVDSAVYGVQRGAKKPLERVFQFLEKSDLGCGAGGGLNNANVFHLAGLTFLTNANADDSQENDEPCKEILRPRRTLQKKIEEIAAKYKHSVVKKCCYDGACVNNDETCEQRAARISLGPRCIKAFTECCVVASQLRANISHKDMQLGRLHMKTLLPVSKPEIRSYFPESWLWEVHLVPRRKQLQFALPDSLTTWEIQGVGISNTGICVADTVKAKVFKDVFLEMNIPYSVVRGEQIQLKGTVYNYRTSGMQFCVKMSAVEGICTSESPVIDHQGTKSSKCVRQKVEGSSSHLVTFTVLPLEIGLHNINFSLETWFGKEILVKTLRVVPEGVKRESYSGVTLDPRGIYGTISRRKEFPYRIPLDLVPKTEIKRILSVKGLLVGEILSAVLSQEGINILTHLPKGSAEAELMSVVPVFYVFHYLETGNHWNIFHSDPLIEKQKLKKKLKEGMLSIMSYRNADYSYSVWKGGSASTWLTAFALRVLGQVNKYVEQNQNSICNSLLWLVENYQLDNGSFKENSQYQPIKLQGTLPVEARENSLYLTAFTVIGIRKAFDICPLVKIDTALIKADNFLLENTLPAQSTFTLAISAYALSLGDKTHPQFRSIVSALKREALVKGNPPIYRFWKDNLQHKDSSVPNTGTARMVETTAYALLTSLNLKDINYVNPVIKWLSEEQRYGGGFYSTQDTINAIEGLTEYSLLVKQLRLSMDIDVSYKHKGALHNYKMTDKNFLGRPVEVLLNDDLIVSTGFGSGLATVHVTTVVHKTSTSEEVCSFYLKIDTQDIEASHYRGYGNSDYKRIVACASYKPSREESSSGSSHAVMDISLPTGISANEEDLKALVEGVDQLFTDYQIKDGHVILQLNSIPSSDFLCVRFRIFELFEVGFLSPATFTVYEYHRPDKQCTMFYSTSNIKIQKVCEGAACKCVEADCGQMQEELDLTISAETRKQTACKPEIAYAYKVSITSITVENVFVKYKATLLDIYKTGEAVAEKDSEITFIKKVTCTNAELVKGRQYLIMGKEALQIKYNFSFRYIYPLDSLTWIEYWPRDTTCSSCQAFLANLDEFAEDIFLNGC

IC50 (read off the curve), % Inhibition [2]	IC50 (read off the curve), % Inhibition [4]	IC50 (read off the curve), OD (450nM) [5]	Binder	also measured
			H3L4-IgG (antibody, V domains shown) VH: QVQLVQSGAEVKKPGASVKVSCKASGYTFTDEYMNWVRQAPGQSLEWMGYINPNNGGADYNPSLKSRVTISVDQSISTAYMELSRLRSDDTAVYFCARLGYSNPYFDFWGQGTLVTVSS VL: DIVLTQSPATLSLSPGERATLSCRASQDVNTAVAWYQQKPGKSPKLLIYWASTRHTGVPARFTGSGSGTDYTLTISSLQPEDFAVYFCQQHHVSPWTFGGGTKVEIK	IC50 (read off the curve), OD (450nM) [1]: ~0.8 µg/mL
			H3L3-IgG (antibody, V domains shown) VH: QVQLVQSGAEVKKPGASVKVSCKASGYTFTDEYMNWVRQAPGQSLEWMGYINPNNGGADYNPSLKSRVTISVDQSISTAYMELSRLRSDDTAVYFCARLGYSNPYFDFWGQGTLVTVSS VL: DIVLTQSPSFLSASVGDRVTITCQASQDVNTAVAWYLQKPGKSPKLLIYWASTRHTGVPARFTGSGSGTDYTLTISSLQPEDFAVYFCQQHHVSPWTFGGGTKVEIK	IC50 (read off the curve), OD (450nM) [1]: ~0.8 µg/mL
~3 µg/mL			H2L1-IgG (antibody, V domains shown) VH: EVQLVQSGAEVKKPGASVKVSCKASGYTFTDEYMNWVRQAPGKSLEWVGYINPNNGGADYNQKFQGRVTITVDQSASTAYMELSSLRSEDTAVYFCARLGYSNPYFDFWGQGTLVTVSS VL: DIVLTQSPDSLAVSLGERATINCKASQDVNTAVAWYQQKPDQSPKLLIYWASTRHTGVPARFTGSGSGTDYTLTISSLQAEDVAVYFCQQHHVSPWTFGGGTKVEIK	
~3 µg/mL			H1L1-IgG (antibody, V domains shown) VH: QVQLVQSGAEVKKPGASVKVSCKASGYTFTDEYMNWVRQAPGQSLEWMGYINPNNGGADYNQKFQGRVTMTVDQSISTAYMELSRLRSDDTAVYFCARLGYSNPYFDFWGQGTLVTVSS VL: DIVLTQSPDSLAVSLGERATINCKASQDVNTAVAWYQQKPDQSPKLLIYWASTRHTGVPARFTGSGSGTDYTLTISSLQAEDVAVYFCQQHHVSPWTFGGGTKVEIK	
			H2L2-IgG (antibody, V domains shown) VH: EVQLVQSGAEVKKPGASVKVSCKASGYTFTDEYMNWVRQAPGKSLEWVGYINPNNGGADYNQKFQGRVTITVDQSASTAYMELSSLRSEDTAVYFCARLGYSNPYFDFWGQGTLVTVSS VL: DIVLTQSPATLSLSPGERATLSCRASQDVNTAVAWYQQKPDQSPKLLIYWASTRHTGVPARFTGSGSGTDYTLTISSLQPEDFAVYFCQQHHVSPWTFGGGTKVEIK	IC50 (read off the curve), OD (450nM) [3]: ~0.7 µg/mL
~3 µg/mL			H1L2-IgG (antibody, V domains shown) VH: QVQLVQSGAEVKKPGASVKVSCKASGYTFTDEYMNWVRQAPGQSLEWMGYINPNNGGADYNQKFQGRVTMTVDQSISTAYMELSRLRSDDTAVYFCARLGYSNPYFDFWGQGTLVTVSS VL: DIVLTQSPATLSLSPGERATLSCRASQDVNTAVAWYQQKPDQSPKLLIYWASTRHTGVPARFTGSGSGTDYTLTISSLQPEDFAVYFCQQHHVSPWTFGGGTKVEIK	
			H3L1-IgG (antibody, V domains shown) VH: QVQLVQSGAEVKKPGASVKVSCKASGYTFTDEYMNWVRQAPGQSLEWMGYINPNNGGADYNPSLKSRVTISVDQSISTAYMELSRLRSDDTAVYFCARLGYSNPYFDFWGQGTLVTVSS VL: DIVLTQSPDSLAVSLGERATINCKASQDVNTAVAWYQQKPDQSPKLLIYWASTRHTGVPARFTGSGSGTDYTLTISSLQAEDVAVYFCQQHHVSPWTFGGGTKVEIK	IC50 (read off the curve), OD (450nM) [3]: ~0.7 µg/mL
~2 µg/mL			H5L1-IgG (antibody, V domains shown) VH: QVQLKQSGAEVKKPGASVKVSCKASGYTFTDEYMNWVRQAPGKSLEWMGYINPNNGGADYNQKFQGRVTMTVDQSISTAYMELSRLRSDDTAVYFCARLGYSNPYFDFWGQGTLVTVSS VL: DIVLTQSPDSLAVSLGERATINCKASQDVNTAVAWYQQKPDQSPKLLIYWASTRHTGVPARFTGSGSGTDYTLTISSLQAEDVAVYFCQQHHVSPWTFGGGTKVEIK	IC50 (read off the curve), OD (450nM) [3]: ~0.5 µg/mL
	~2 µg/mL	~0.4 µg/mL	H5L2-Fab (Fab, V domains shown) VH: QVQLKQSGAEVKKPGASVKVSCKASGYTFTDEYMNWVRQAPGKSLEWMGYINPNNGGADYNQKFQGRVTMTVDQSISTAYMELSRLRSDDTAVYFCARLGYSNPYFDFWGQGTLVTVSS VL: DIVLTQSPATLSLSPGERATLSCRASQDVNTAVAWYQQKPDQSPKLLIYWASTRHTGVPARFTGSGSGTDYTLTISSLQPEDFAVYFCQQHHVSPWTFGGGTKVEIK	
	~2 µg/mL		H1L3-Fab (Fab, V domains shown) VH: QVQLVQSGAEVKKPGASVKVSCKASGYTFTDEYMNWVRQAPGQSLEWMGYINPNNGGADYNQKFQGRVTMTVDQSISTAYMELSRLRSDDTAVYFCARLGYSNPYFDFWGQGTLVTVSS VL: DIVLTQSPSFLSASVGDRVTITCQASQDVNTAVAWYLQKPGKSPKLLIYWASTRHTGVPARFTGSGSGTDYTLTISSLQPEDFAVYFCQQHHVSPWTFGGGTKVEIK	
		~0.5 µg/mL	H2L2-Fab (Fab, V domains shown) VH: EVQLVQSGAEVKKPGASVKVSCKASGYTFTDEYMNWVRQAPGKSLEWVGYINPNNGGADYNQKFQGRVTITVDQSASTAYMELSSLRSEDTAVYFCARLGYSNPYFDFWGQGTLVTVSS VL: DIVLTQSPATLSLSPGERATLSCRASQDVNTAVAWYQQKPDQSPKLLIYWASTRHTGVPARFTGSGSGTDYTLTISSLQPEDFAVYFCQQHHVSPWTFGGGTKVEIK	
	~2 µg/mL	~0.3 µg/mL	H1L1-Fab (Fab, V domains shown) VH: QVQLVQSGAEVKKPGASVKVSCKASGYTFTDEYMNWVRQAPGQSLEWMGYINPNNGGADYNQKFQGRVTMTVDQSISTAYMELSRLRSDDTAVYFCARLGYSNPYFDFWGQGTLVTVSS VL: DIVLTQSPDSLAVSLGERATINCKASQDVNTAVAWYQQKPDQSPKLLIYWASTRHTGVPARFTGSGSGTDYTLTISSLQAEDVAVYFCQQHHVSPWTFGGGTKVEIK	
		~0.5 µg/mL	H3L2-Fab (Fab, V domains shown) VH: QVQLVQSGAEVKKPGASVKVSCKASGYTFTDEYMNWVRQAPGQSLEWMGYINPNNGGADYNPSLKSRVTISVDQSISTAYMELSRLRSDDTAVYFCARLGYSNPYFDFWGQGTLVTVSS VL: DIVLTQSPATLSLSPGERATLSCRASQDVNTAVAWYQQKPDQSPKLLIYWASTRHTGVPARFTGSGSGTDYTLTISSLQPEDFAVYFCQQHHVSPWTFGGGTKVEIK	
			H3L2-IgG (antibody, V domains shown) VH: QVQLVQSGAEVKKPGASVKVSCKASGYTFTDEYMNWVRQAPGQSLEWMGYINPNNGGADYNPSLKSRVTISVDQSISTAYMELSRLRSDDTAVYFCARLGYSNPYFDFWGQGTLVTVSS VL: DIVLTQSPATLSLSPGERATLSCRASQDVNTAVAWYQQKPDQSPKLLIYWASTRHTGVPARFTGSGSGTDYTLTISSLQPEDFAVYFCQQHHVSPWTFGGGTKVEIK	IC50 (read off the curve), OD (450nM) [3]: ~0.8 µg/mL
	~2 µg/mL	~0.4 µg/mL	H1L2-Fab (Fab, V domains shown) VH: QVQLVQSGAEVKKPGASVKVSCKASGYTFTDEYMNWVRQAPGQSLEWMGYINPNNGGADYNQKFQGRVTMTVDQSISTAYMELSRLRSDDTAVYFCARLGYSNPYFDFWGQGTLVTVSS VL: DIVLTQSPATLSLSPGERATLSCRASQDVNTAVAWYQQKPDQSPKLLIYWASTRHTGVPARFTGSGSGTDYTLTISSLQPEDFAVYFCQQHHVSPWTFGGGTKVEIK	
		~0.5 µg/mL	H3L1-Fab (Fab, V domains shown) VH: QVQLVQSGAEVKKPGASVKVSCKASGYTFTDEYMNWVRQAPGQSLEWMGYINPNNGGADYNPSLKSRVTISVDQSISTAYMELSRLRSDDTAVYFCARLGYSNPYFDFWGQGTLVTVSS VL: DIVLTQSPDSLAVSLGERATINCKASQDVNTAVAWYQQKPDQSPKLLIYWASTRHTGVPARFTGSGSGTDYTLTISSLQAEDVAVYFCQQHHVSPWTFGGGTKVEIK	
	~2 µg/mL	~0.5 µg/mL	H2L1-Fab (Fab, V domains shown) VH: EVQLVQSGAEVKKPGASVKVSCKASGYTFTDEYMNWVRQAPGKSLEWVGYINPNNGGADYNQKFQGRVTITVDQSASTAYMELSSLRSEDTAVYFCARLGYSNPYFDFWGQGTLVTVSS VL: DIVLTQSPDSLAVSLGERATINCKASQDVNTAVAWYQQKPDQSPKLLIYWASTRHTGVPARFTGSGSGTDYTLTISSLQAEDVAVYFCQQHHVSPWTFGGGTKVEIK	
~3 µg/mL			H5L3-IgG (antibody, V domains shown) VH: QVQLKQSGAEVKKPGASVKVSCKASGYTFTDEYMNWVRQAPGKSLEWMGYINPNNGGADYNQKFQGRVTMTVDQSISTAYMELSRLRSDDTAVYFCARLGYSNPYFDFWGQGTLVTVSS VL: DIVLTQSPSFLSASVGDRVTITCQASQDVNTAVAWYLQKPGKSPKLLIYWASTRHTGVPARFTGSGSGTDYTLTISSLQPEDFAVYFCQQHHVSPWTFGGGTKVEIK	
~3 µg/mL			H5L2-IgG (antibody, V domains shown) VH: QVQLKQSGAEVKKPGASVKVSCKASGYTFTDEYMNWVRQAPGKSLEWMGYINPNNGGADYNQKFQGRVTMTVDQSISTAYMELSRLRSDDTAVYFCARLGYSNPYFDFWGQGTLVTVSS VL: DIVLTQSPATLSLSPGERATLSCRASQDVNTAVAWYQQKPDQSPKLLIYWASTRHTGVPARFTGSGSGTDYTLTISSLQPEDFAVYFCQQHHVSPWTFGGGTKVEIK	IC50 (read off the curve), OD (450nM) [3]: ~0.7 µg/mL
	~2 µg/mL		H5L1-Fab (Fab, V domains shown) VH: QVQLKQSGAEVKKPGASVKVSCKASGYTFTDEYMNWVRQAPGKSLEWMGYINPNNGGADYNQKFQGRVTMTVDQSISTAYMELSRLRSDDTAVYFCARLGYSNPYFDFWGQGTLVTVSS VL: DIVLTQSPDSLAVSLGERATINCKASQDVNTAVAWYQQKPDQSPKLLIYWASTRHTGVPARFTGSGSGTDYTLTISSLQAEDVAVYFCQQHHVSPWTFGGGTKVEIK	
